Consider 1 molecule from US20040254135, “Modulation of metabolism of steroids and xenobiotics” (published 2004).

The target of one data set is CAR:RXR heterodimer (UniProt Q14994;P19793 Q14994:1-352,P19793:1-462). The data set is described as follows: EMSA.
The target of the next data set is SXR:RXR heterodimer (UniProt O75469;P19793 O75469:1-434,P19793:1-462). Nature of the data set: EMSA.
SXR:RXR heterodimer, sequence (O75469 whole entry, chain 1 of 2): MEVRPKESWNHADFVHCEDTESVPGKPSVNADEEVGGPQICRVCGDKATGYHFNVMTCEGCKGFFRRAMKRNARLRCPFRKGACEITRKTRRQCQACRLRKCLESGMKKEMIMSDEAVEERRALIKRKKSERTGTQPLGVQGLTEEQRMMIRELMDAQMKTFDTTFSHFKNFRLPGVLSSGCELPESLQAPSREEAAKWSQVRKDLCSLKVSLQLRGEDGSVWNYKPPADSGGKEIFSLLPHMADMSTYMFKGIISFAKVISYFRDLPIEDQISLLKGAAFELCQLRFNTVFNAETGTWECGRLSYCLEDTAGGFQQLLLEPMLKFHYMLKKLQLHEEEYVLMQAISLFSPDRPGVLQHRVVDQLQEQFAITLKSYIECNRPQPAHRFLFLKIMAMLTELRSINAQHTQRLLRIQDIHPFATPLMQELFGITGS
SXR:RXR heterodimer, sequence (P19793 whole entry, chain 2 of 2): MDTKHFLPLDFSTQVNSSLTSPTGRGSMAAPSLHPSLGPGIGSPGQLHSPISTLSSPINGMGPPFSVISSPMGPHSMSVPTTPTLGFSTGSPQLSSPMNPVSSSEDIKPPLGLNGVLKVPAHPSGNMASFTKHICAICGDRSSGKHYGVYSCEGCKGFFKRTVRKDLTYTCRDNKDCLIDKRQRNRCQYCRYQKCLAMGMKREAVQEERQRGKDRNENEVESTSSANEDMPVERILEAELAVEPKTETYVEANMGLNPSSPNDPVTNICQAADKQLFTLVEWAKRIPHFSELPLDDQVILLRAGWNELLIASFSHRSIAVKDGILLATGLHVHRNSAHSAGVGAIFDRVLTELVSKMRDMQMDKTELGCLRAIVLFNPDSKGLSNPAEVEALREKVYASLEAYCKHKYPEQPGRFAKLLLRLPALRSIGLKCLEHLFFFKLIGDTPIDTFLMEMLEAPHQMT

CAR:RXR heterodimer, sequence (Q14994 whole entry, chain 1 of 2): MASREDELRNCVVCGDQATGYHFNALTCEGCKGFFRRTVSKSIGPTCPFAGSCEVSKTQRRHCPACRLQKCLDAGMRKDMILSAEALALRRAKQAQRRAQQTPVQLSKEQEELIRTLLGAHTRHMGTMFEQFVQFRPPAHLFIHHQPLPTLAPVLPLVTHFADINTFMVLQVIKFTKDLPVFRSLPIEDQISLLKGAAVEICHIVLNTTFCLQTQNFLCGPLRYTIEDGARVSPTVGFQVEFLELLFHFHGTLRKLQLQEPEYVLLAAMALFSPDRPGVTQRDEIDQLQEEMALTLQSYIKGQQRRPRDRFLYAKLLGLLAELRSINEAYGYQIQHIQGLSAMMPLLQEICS
CAR:RXR heterodimer, sequence (P19793 whole entry, chain 2 of 2): as the sequence (P19793 whole entry, chain 2 of 2) above

B1: UGT1A6 DR-3 (dsDNA)
DNA 1: ACTGTAGTTCATAAAGTTCACATGG
DNA 2: CCATGTGAACTTTATGAACTACAGT
For B1, the binding result in the data set with CAR:RXR heterodimer and in the data set with SXR:RXR heterodimer was “binds” each time.
